Like-named read-outs stand apart in the source and are kept apart here.
Tested on: tetA promoter (PtetA)-lacZ reporter in E. coli KM3
Assay type: cell-based
Settings: for relative β-galactosidase activity, inducer atc: anhydrotetracycline 0.4 μM; for relative β-galactosidase activity, inducer Ci: chlorimuron 20 μg/ml (20 ppm); for relative β-galactosidase activity, inducer Ns: nicosulfuron 20 μg/ml (20 ppm); for relative β-galactosidase activity, inducer None / relative β-galactosidase activity, No inducer: no inducer; for relative β-galactosidase activity, inducer Rs: rimsulfuron 20 μg/ml (20 ppm); for relative β-galactosidase activity, inducer Ts: thifensulfuron 20 μg/ml (20 ppm); for relative β-galactosidase activity, inducer Tb: tribenuron 20 μg/ml (20 ppm); for response to thifensulfuron-methyl (Ts), blue colony color: 20 μg/ml Ts, 96-well re-test, FIG. 3
[1] = Table 4, chlorsulfuron 20 μg/ml (20 ppm), 48 hrs at 30° C.
[2] = Table 4, ethametsulfuron 20 μg/ml (20 ppm), 48 hrs at 30° C.
[3] = Table 4, sulfometuron 20 μg/ml (20 ppm), 48 hrs at 30° C.
[4] = Table 10, chlorsulfuron 2 ppm, 48 hours at 30° C.
[5] = Table 10, metsulfuron 2 ppm, 48 hours at 30° C.
[6] = Table 10, sulfometuron 2 ppm, 48 hours at 30° C.
[7] = Table 4, metsulfuron 20 μg/ml (20 ppm), 48 hrs at 30° C.

Molecule	relative β-galactosidase activity, inducer atc (Table 4, 48 hrs at 30° C.)	relative β-galactosidase activity, inducer Ci (Table 4, 48 hrs at 30° C.)	relative β-galactosidase activity, inducer Cs [1]	relative β-galactosidase activity, inducer Es [2]	relative β-galactosidase activity, inducer Ns (Table 4, 48 hrs at 30° C.)	relative β-galactosidase activity, inducer None (Table 4, 48 hrs at 30° C.)	relative β-galactosidase activity, inducer Rs (Table 4, 48 hrs at 30° C.)	relative β-galactosidase activity, inducer Sm [3]	relative β-galactosidase activity, inducer Ts (Table 4, 48 hrs at 30° C.)	relative β-galactosidase activity, inducer Tb (Table 4, 48 hrs at 30° C.)	Inducer preference (Table 8, inducers given as numbers without key)	relative β-galactosidase activity, inducer Cs [4]	relative β-galactosidase activity, inducer Es (Table 10, ethametsulfuron 2 ppm, 48 hours at 30° C.)	relative β-galactosidase activity, inducer Ms [5]	relative β-galactosidase activity, No inducer (Table 10, 48 hours at 30° C.)	relative β-galactosidase activity, inducer Sm [6]	response to thifensulfuron-methyl (Ts), blue colony color	relative β-galactosidase activity, inducer Ms [7]
L1-29: library L1 hit, sulfonylurea-responsive TetR(B) variant, SEQ ID NO: 10 (protein, Sulfonylurea responsive repressor L1-29) MGSRLDKSKVINSALELLNEVGIEGLTTRKLAQKLGVEQPTLYWHVKNKRALLDALAIEMMDRHQTHFCPLEGESWQDFLRNTAKSMRCALLSHRDGAKVWLGTRWTEKQYETPENMLAFLCQQGFSLENALYAWSAVCNFTLGCVLSDQERQVAKEERETPTTDSMPPLLRQAWELSDHQGAEPAFLFGLELIICGLEKQLKCESGS	0.0	20.9	15.8	1.7	0.1	0.0	0.1	2.7	0.0	0.3	9 (weak)	0.2	0.3	0.3	0.1	0.2	–	–
L1-20: library L1 hit, sulfonylurea-responsive TetR(B) variant, SEQ ID NO: 6 (protein, Sulfonylurea responsive repressor L1-20) MGSRLDKSKVINSALELLNEVGIEGLTTRKLAQKLGVEQPTLYWHVKNKRALLDALAIEMMDRHQTHFCPLEGESWQDFLRNNAKSMRCALLSHRDGAKVFLGTAWTEKQYETVENLLAFLCQQGFSLENALYALNAVATFTLGCVLWDQEKQVAKEERETPTTDSMPPLLRQAHELGDHQGAEPAFLFGLELIICGLEKQLKSESGS	2.0	13.5	22.0	15.0	1.6	1.4	2.0	6.0	2.6	2.6	–	–	–	–	–	–	most intensely responding	12.4
L1-2: library L1 hit, sulfonylurea-responsive TetR(B) variant, SEQ ID NO: 3 (protein, Sulfonylurea responsive repressor L1-02) MGSRLDKSKVINSALELLNEVGIEGLTTRKLAQKLGVEQPTLYWHVKNKRALLDALAIEMLDRHATHFCPLEGESWQDFLRNNAKSFRCALLSHRDGAKVCLGTAVTEKQYETMENILAFLCQQGFSLENALYARRAVIAFTLGCVLWDQEYQVAKEERETPTTDSMPPLLRQARELIDHQGAEPAFLFGLELIICGLEKQLKCESGS	1.2	13.6	4.1	5.8	1.3	1.0	1.3	4.7	1.6	1.7	–	–	–	–	–	–	most intensely responding	1.9
L1-28: library L1 hit, sulfonylurea-responsive TetR(B) variant (protein, Sulfonylurea responsive repressor L1-28) MGSRLDKSKVINSALELLNEVGIEGLTTRKLAQKLGVEQPTLYWHVKNKRALLDALAIEMLDRHATHFCPLEGESWQDFLRNNAKSMRCALLSHRDGAKVWLGTAWTEKQYETPENVLAFLCQQGFSLENALYASRAVVTFTLGCVLTDQEKQVAKEERETPTTDSMPPLLRQAWELLDHQGAEPAFLFGLELIICGLEKQLKCESGS	0.0	14.6	5.8	0.8	0.1	0.0	0.2	1.1	0.1	0.3	–	–	–	–	–	–	–	18.8
L1-24: library L1 hit, sulfonylurea-responsive TetR(B) variant (protein, Sulfonylurea responsive repressor L1-24) MGSRLDKSKVINSALELLNEVGIEGLTTRKLAQKLGVEQPTLYWHVKNKRALLDALAIEMLDRHNTHFCPLEGESWQDFLRNSAKSMRCALLSHRDGAKVLLGTAVTEKQYETTENSLAFLCQQGFSLENALYAIRAVRTFTLGCVLVDQERQVAKEERETPTTDSMPPLLRQAKELLDHQGAEPAFLFGLELIICGLEKQLKCESGS	0.1	22.1	3.3	0.2	0.3	0.1	0.3	3.1	0.3	1.6	–	–	–	–	–	–	–	0.4
L1-31: library L1 hit, sulfonylurea-responsive TetR(B) variant (protein, Sulfonylurea responsive repressor L1-31) MGSRLDKSKVINSALELLNEVGIEGLTTRKLAQKLGVEQPTLYWHVKNKRALLDALAIEMLDRHATHFCPLEGESWQDFLRNNAKSMRCALLSHRDGAKVMLGTRATEKQYETVENRLAFLCQQGFSLENALYAVRAVHWFTLGCVLIDQEMQVAKEERETPTTDSMPPLLRQAYELYDHQGAEPAFLFGLELIICGLEKQLKCESGS	0.4	1.1	1.4	13.7	0.5	0.3	0.4	0.9	0.9	0.1	–	–	–	–	–	–	–	0.5
L1-38: library L1 hit, sulfonylurea-responsive TetR(B) variant (protein, Sulfonylurea responsive repressor L1-38) MGSRLDKSKVINSALELLNEVGIEGLTTRKLAQKLGVEQPTLYWHVKNKRALLDALAIEMADRHHTHFCPLEGESWQDFLRNNAKSMRCALLSHRDGAKVWLGTAWTEKQYETTENMLAFLCQQGFSLENALYAWRAVTMFTLGCVLRDQEWQVAKEERETPTTDSMPPLLRQALELGDHQGAEPAFLFGLELIICGLEKQLKCESGS	6.4	15.3	14.0	14.8	8.7	9.5	9.5	18.3	16.7	15.8	–	–	–	–	–	–	–	14.7
L1-9: library L1 hit, sulfonylurea-responsive TetR(B) variant, parent of L2 and L4 (protein, Sulfonylurea responsive repressor L1-09) MGSRLDKSKVINSALELLNEVGIEGLTTRKLAQKLGVEQPTLYWHVKNKRALLDALAIEMLDRHATHFCPLEGESWQDFLRNNAKSMRCALLSHRDGAKVCLGTGFTEKQYETAENSLAFLCQQGFSLENALYAMQAVCIFTLGCVLLDQELQVAKEERETPTTDSMPPLLRQALELKDHQGAEPAFLFGLELIICGLEKQLKCESGS	0.3	9.8	–	–	0.3	0.3	0.4	0.6	1.1	0.4	–	2.2	–	0.9	0.9	0.9	most intensely responding	1.2
